Test results taken from patent publication US20210395394A1.

The binders below were run against Pan-species-specific antigen Plasmodium Lactate DeHydrogenase (Pan-PLDH) protein (assay: indirect ELISA at four coating concentrations, KD calculated from half-maximal OD).

| Binder | Kd [nM] |
| --- | --- |
| WT 1-6 (antibody, mouse IgG2b, kappa, V domains shown) VH: QVQLQQPGAELVRPGASVKLSCKASGTSFTNYFMNWVKQRPGQGLEWIGMINPSDSETRLNQKFKDKATLTVDKSSSTAYMQLSSLTAEDSAVYYCARSGDFYTYYWDYWGQGTTLTVSS VL: DIQLTQSPASLSASVGETVTITCRGSGNIHNYIAWYQQKQGKSPQLLVYNAKTVADGVPSRFSGSGSGTQYSLKINSLQPEDFGSYYCQSFWSSYTFGGGTKLEIKR | 1.56 |
| Mutation 1-11 (antibody, mouse IgG2b, kappa, V domains shown) VH: QVQLQQPGAELVRPGASVKLSCKASGYSFTNYWMNWVKQRPGQGLEWIGMIHPSESETRVNQKFKDKATLTVDKSSSTAYMQLSSLTAEDSAVYYCARSGEFYTTYFDYWGQGTTLTVSS VL: DIQLTQSPASLSASVGETVTITCRGSGNLHNYLAWYQQKQGKSPQLLVYNARTIADGVPSRFSGSGSGTQYSLKINSLQPEDFGSYYCQTFWSTYTFGGGTKLEIKR | 0.465 |
| Mutation 1-6 (antibody, mouse IgG2b, kappa, V domains shown) VH: QVQLQQPGAELVRPGASVKLSCKASGTSFTNYWMNWVKQRPGQGLEWIGMIHPSDSETRINQKFKDKATLTVDKSSSTAYMQLSSLTAEDSAVYYCARSGDFYTSYFDYWGQGTTLTVSS VL: DIQLTQSPASLSASVGETVTITCRGTGNIHNYLAWYQQKQGKSPQLLVYNAKTLADGVPSRFSGSGSGTQYSLKINSLQPEDFGSYYCQTFWSTYTFGGGTKLEIKR | 0.664 |
| Mutation 1-17 (antibody, mouse IgG2b, kappa, V domains shown) VH: QVQLQQPGAELVRPGASVKLSCKASGTSFTNYWMNWVKQRPGQGLEWIGMIHPSESETRVNQKFKDKATLTVDKSSSTAYMQLSSLTAEDSAVYYCAKSGEFYTTYFDYWGQGTTLTVSS VL: DIQLTQSPASLSASVGETVTITCRGTGNIHNYLAWYQQKQGKSPQLLVYNARTVADGVPSRFSGSGSGTQYSLKINSLQPEDFGSYYCQTFWSTYTFGGGTKLEIKR | 0.37 |
| Mutation 1-3 (antibody, mouse IgG2b, kappa, V domains shown) VH: QVQLQQPGAELVRPGASVKLSCKASGTSFTNYWMNWVKQRPGQGLEWIGMIHPSDSETRINQKFKDKATLTVDKSSSTAYMQLSSLTAEDSAVYYCAKSGEFYTSYFDYWGQGTTLTVSS VL: DIQLTQSPASLSASVGETVTITCRGTGNVHNYLAWYQQKQGKSPQLLVYNAKTIADGVPSRFSGSGSGTQYSLKINSLQPEDFGSYYCQYFWSTYTFGGGTKLEIKR | 0.098 |
| WT 1-7 (antibody, mouse IgG2b, kappa, V domains shown) VH: QVQLQQPGAELVRPGASVKLSCKASGSSFTNYFMNWVKQRPGQGLEWIGMINPSDSETRVNQKFKDKATLTVDKSSSTAYMQLSSLTAEDSAVYYCARSGEFYTSYWDYWGQGTTLTVSS VL: DIQLTQSPASLSASVGETVTITCRGTGNVHNYIAWYQQKQGKSPQLLVYNAKTLADGVPSRFSGSGSGTQYSLKINSLQPEDFGSYYCQYFWSSYTFGGGTKLEIKR | 0.757 |
| Mutation 1-4 (antibody, mouse IgG2b, kappa, V domains shown) VH: QVQLQQPGAELVRPGASVKLSCKASGYSFTNYWMNWVKQRPGQGLEWIGMIHPSDSETRLNQKFKDKATLTVDKSSSTAYMQLSSLTAEDSAVYYCAKSGEFYTYYFDYWGQGTTLTVSS VL: DIQLTQSPASLSASVGETVTITCRGSGNIHNYLAWYQQKQGKSPQLLVYNAKTVADGVPSRFSGSGSGTQYSLKINSLQPEDFGSYYCQTFWSTYTFGGGTKLEIKR | 0.596 |
| Mutation 1-14 (antibody, mouse IgG2b, kappa, V domains shown) VH: QVQLQQPGAELVRPGASVKLSCKASGSSFTNYWMNWVKQRPGQGLEWIGMIHPSDSETRVNQKFKDKATLTVDKSSSTAYMQLSSLTAEDSAVYYCAKSGDFYTTYFDYWGQGTTLTVSS VL: DIQLTQSPASLSASVGETVTITCRGSGNVHNYLAWYQQKQGKSPQLLVYNAKTIADGVPSRFSGSGSGTQYSLKINSLQPEDFGSYYCQSFWSTYTFGGGTKLEIKR | 0.488 |
| Mutation 1-7 (antibody, mouse IgG2b, kappa, V domains shown) VH: QVQLQQPGAELVRPGASVKLSCKASGSSFTNYWMNWVKQRPGQGLEWIGMIHPSDSETRLNQKFKDKATLTVDKSSSTAYMQLSSLTAEDSAVYYCARSGDFYTYYFDYWGQGTTLTVSS VL: DIQLTQSPASLSASVGETVTITCRGSGNIHNYLAWYQQKQGKSPQLLVYNAKTVADGVPSRFSGSGSGTQYSLKINSLQPEDFGSYYCQSFWSTYTFGGGTKLEIKR | 0.208 |
| WT 1-8 (antibody, mouse IgG2b, kappa, V domains shown) VH: QVQLQQPGAELVRPGASVKLSCKASGTSFTNYFMNWVKQRPGQGLEWIGMINPSDSETRVNQKFKDKATLTVDKSSSTAYMQLSSLTAEDSAVYYCAKSGEFYTSYWDYWGQGTTLTVSS VL: DIQLTQSPASLSASVGETVTITCRGSGNVHNYIAWYQQKQGKSPQLLVYNAKTIADGVPSRFSGSGSGTQYSLKINSLQPEDFGSYYCQSFWSSYTFGGGTKLEIKR | 1.36 |
| Mutation 1-9 (antibody, mouse IgG2b, kappa, V domains shown) VH: QVQLQQPGAELVRPGASVKLSCKASGSSFTNYWMNWVKQRPGQGLEWIGMIHPSESETRINQKFKDKATLTVDKSSSTAYMQLSSLTAEDSAVYYCARSGEFYTSYFDYWGQGTTLTVSS VL: DIQLTQSPASLSASVGETVTITCRGSGNVHNYLAWYQQKQGKSPQLLVYNARTLADGVPSRFSGSGSGTQYSLKINSLQPEDFGSYYCQSFWSTYTFGGGTKLEIKR | 0.616 |
| WT 1-9 (antibody, mouse IgG2b, kappa, V domains shown) VH: QVQLQQPGAELVRPGASVKLSCKASGSSFTNYFMNWVKQRPGQGLEWIGMINPSESETRINQKFKDKATLTVDKSSSTAYMQLSSLTAEDSAVYYCAKSGEFYTYYWDYWGQGTTLTVSS VL: DIQLTQSPASLSASVGETVTITCRGTGNVHNYIAWYQQKQGKSPQLLVYNARTLADGVPSRFSGSGSGTQYSLKINSLQPEDFGSYYCQTFWSSYTFGGGTKLEIKR | 0.621 |
| Mutation 1-13 (antibody, mouse IgG2b, kappa, V domains shown) VH: QVQLQQPGAELVRPGASVKLSCKASGTSFTNYWMNWVKQRPGQGLEWIGMIHPSDSETRLNQKFKDKATLTVDKSSSTAYMQLSSLTAEDSAVYYCAKSGDFYTYYFDYWGQGTTLTVSS VL: DIQLTQSPASLSASVGETVTITCRGTGNLHNYLAWYQQKQGKSPQLLVYNAKTLADGVPSRFSGSGSGTQYSLKINSLQPEDFGSYYCQTFWSTYTFGGGTKLEIKR | 0.531 |
| Mutation 1-8 (antibody, mouse IgG2b, kappa, V domains shown) VH: QVQLQQPGAELVRPGASVKLSCKASGYSFTNYWMNWVKQRPGQGLEWIGMIHPSDSETRVNQKFKDKATLTVDKSSSTAYMQLSSLTAEDSAVYYCARSGDFYTTYFDYWGQGTTLTVSS VL: DIQLTQSPASLSASVGETVTITCRGTGNVHNYLAWYQQKQGKSPQLLVYNAKTIADGVPSRFSGSGSGTQYSLKINSLQPEDFGSYYCQYFWSTYTFGGGTKLEIKR | 0.481 |
| Mutation 1-15 (antibody, mouse IgG2b, kappa, V domains shown) VH: QVQLQQPGAELVRPGASVKLSCKASGSSFTNYWMNWVKQRPGQGLEWIGMIHPSESETRINQKFKDKATLTVDKSSSTAYMQLSSLTAEDSAVYYCAKSGEFYTSYFDYWGQGTTLTVSS VL: DIQLTQSPASLSASVGETVTITCRGTGNVHNYLAWYQQKQGKSPQLLVYNARTVADGVPSRFSGSGSGTQYSLKINSLQPEDFGSYYCQTFWSTYTFGGGTKLEIKR | 0.47 |
| Mutation 1-5 (antibody, mouse IgG2b, kappa, V domains shown) VH: QVQLQQPGAELVRPGASVKLSCKASGSSFTNYWMNWVKQRPGQGLEWIGMIHPSDSETRVNQKFKDKATLTVDKSSSTAYMQLSSLTAEDSAVYYCAKSGEFYTTYFDYWGQGTTLTVSS VL: DIQLTQSPASLSASVGETVTITCRGTGNIHNYLAWYQQKQGKSPQLLVYNAKTLADGVPSRFSGSGSGTQYSLKINSLQPEDFGSYYCQSFWSTYTFGGGTKLEIKR | 0.532 |
| Mutation 1-1 (antibody, mouse IgG2b, kappa, V domains shown) VH: QVQLQQPGAELVRPGASVKLSCKASGYSFTNYWMNWVKQRPGQGLEWIGMIHPSESETRLNQKFKDKATLTVDKSSSTAYMQLSSLTAEDSAVYYCAKSGDFYTYYFDYWGQGTTLTVSS VL: DIQLTQSPASLSASVGETVTITCRGTGNLHNYLAWYQQKQGKSPQLLVYNARTVADGVPSRFSGSGSGTQYSLKINSLQPEDFGSYYCQYFWSTYTFGGGTKLEIKR | 0.521 |
| Mutation 1-2 (antibody, mouse IgG2b, kappa, V domains shown) VH: QVQLQQPGAELVRPGASVKLSCKASGTSFTNYWMNWVKQRPGQGLEWIGMIHPSESETRVNQKFKDKATLTVDKSSSTAYMQLSSLTAEDSAVYYCAKSGDFYTTYFDYWGQGTTLTVSS VL: DIQLTQSPASLSASVGETVTITCRGSGNVHNYLAWYQQKQGKSPQLLVYNARTLADGVPSRFSGSGSGTQYSLKINSLQPEDFGSYYCQTFWSTYTFGGGTKLEIKR | 0.338 |
| Mutation 1-10 (antibody, mouse IgG2b, kappa, V domains shown) VH: QVQLQQPGAELVRPGASVKLSCKASGTSFTNYWMNWVKQRPGQGLEWIGMIHPSESETRLNQKFKDKATLTVDKSSSTAYMQLSSLTAEDSAVYYCARSGEFYTYYFDYWGQGTTLTVSS VL: DIQLTQSPASLSASVGETVTITCRGTGNLHNYLAWYQQKQGKSPQLLVYNARTVADGVPSRFSGSGSGTQYSLKINSLQPEDFGSYYCQYFWSTYTFGGGTKLEIKR | 0.525 |
| Mutation 1-12 (antibody, mouse IgG2b, kappa, V domains shown) VH: QVQLQQPGAELVRPGASVKLSCKASGYSFTNYWMNWVKQRPGQGLEWIGMIHPSDSETRINQKFKDKATLTVDKSSSTAYMQLSSLTAEDSAVYYCAKSGDFYTSYFDYWGQGTTLTVSS VL: DIQLTQSPASLSASVGETVTITCRGSGNLHNYLAWYQQKQGKSPQLLVYNAKTVADGVPSRFSGSGSGTQYSLKINSLQPEDFGSYYCQYFWSTYTFGGGTKLEIKR | 0.118 |
| Mutation 1-16 (antibody, mouse IgG2b, kappa, V domains shown) VH: QVQLQQPGAELVRPGASVKLSCKASGYSFTNYWMNWVKQRPGQGLEWIGMIHPSESETRLNQKFKDKATLTVDKSSSTAYMQLSSLTAEDSAVYYCAKSGEFYTYYFDYWGQGTTLTVSS VL: DIQLTQSPASLSASVGETVTITCRGSGNIHNYLAWYQQKQGKSPQLLVYNARTLADGVPSRFSGSGSGTQYSLKINSLQPEDFGSYYCQSFWSTYTFGGGTKLEIKR | 0.411 |
| Mutation 1-18 (antibody, mouse IgG2b, kappa, V domains shown) VH: QVQLQQPGAELVRPGASVKLSCKASGTSFTNYWMNWVKQRPGQGLEWIGMIHPSDSETRINQKFKDKATLTVDKSSSTAYMQLSSLTAEDSAVYYCARSGDFYTSYFDYWGQGTTLTVSS VL: DIQLTQSPASLSASVGETVTITCRGTGNIHNYLAWYQQKQGKSPQLLVYNAKTIADGVPSRFSGSGSGTQYSLKINSLQPEDFGSYYCQSFWSTYTFGGGTKLEIKR | 0.567 |
